From PMC5730846 come the findings set out here.

By Kd is commonly meant a measure of binding affinity in units of concentration.

The target of test [1] is recombinant Hsp90α (human) (UniProt P07900).
Test [2] concerns the target Tsc1-D-His6 labeled with Texas Red maleimide (UniProt Q92574). Put plainly: fluorescence polarisation; fluorescence anisotropy; 1 μM Texas Red-labeled Tsc1-D, Hsp90α at the indicated concentrations; 50 mM Tris pH 7.2, 150 mM NaCl, 1 mM TCEP, 4 mM MgCl2; no nucleotide or drug; single-site fit. A general note: Fluorescence polarisation rises when a labelled molecule tumbles more slowly, as on binding a larger partner.

Test [3] has the same target. Put plainly: fluorescence polarisation; as a5, Hsp90α pre-incubated with 1 μM GB (ganetespib).

Tsc1-D-His6 labeled with Texas Red maleimide, sequence (Q92574 998-1164): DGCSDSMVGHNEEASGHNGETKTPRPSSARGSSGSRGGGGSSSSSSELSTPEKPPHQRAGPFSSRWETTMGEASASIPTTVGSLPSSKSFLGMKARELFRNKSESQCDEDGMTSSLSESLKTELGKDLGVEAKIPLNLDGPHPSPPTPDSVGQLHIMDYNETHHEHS
recombinant Aha1-FLAG, sequence (O95433 whole entry): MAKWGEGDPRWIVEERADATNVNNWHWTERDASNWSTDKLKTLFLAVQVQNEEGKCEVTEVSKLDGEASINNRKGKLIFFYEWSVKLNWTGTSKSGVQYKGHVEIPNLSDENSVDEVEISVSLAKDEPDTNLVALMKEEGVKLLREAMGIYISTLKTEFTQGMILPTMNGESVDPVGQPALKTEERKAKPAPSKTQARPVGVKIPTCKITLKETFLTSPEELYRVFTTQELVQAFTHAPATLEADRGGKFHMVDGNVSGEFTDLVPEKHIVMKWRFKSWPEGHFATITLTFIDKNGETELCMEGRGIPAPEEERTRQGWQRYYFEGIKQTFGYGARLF

Turning to “recombinant Aha1-FLAG (from UniProt O95433 1-338) (natural protein)”, the Hsp90α ATPase activity in vitro after incubation with 1 μM Tsc1-D-His6 and addition of 1.3 μM Aha1-FLAG (percent of Hsp90α alone) in test [1] amounted to 100%. As for “recombinant Hsp90α (from UniProt P07900 1-732) (natural protein)”, the Kd in test [2] is 480 nM; in test [3], > 5000 nM.
